Measured values from PMC9482650, “Quantitative fragmentomics allow affinity mapping of interactomes” (Nature Communications, 2022).

What follows are binders tested against T1, DFNB31_1, Q9P202 (assay: holdup assay). Conditions: plain residues with an end cap or a label only (N-terminal biotin on a linker: ado-ado).
T1 sequence (Q9P202 135-233, limits assumed, looked up): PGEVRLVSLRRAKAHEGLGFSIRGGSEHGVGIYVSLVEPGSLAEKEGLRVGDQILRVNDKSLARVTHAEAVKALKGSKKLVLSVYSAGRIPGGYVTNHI
Design: key: below the threshold = too weak to quantify, mostly under pKd 3.1 to 4

Binder	pKd
AKPSRISTVV [IQSEC2, Q5JU85]	below the threshold
DDENIRTSDV [PLEKHA2, Q9HB19]	below the threshold
PEYLGLDVPV [ERBB2, P04626]	below the threshold

Each binder was assayed against DLG1_3, Q12959 (assay: holdup assay). Conditions: plain residues with an end cap or a label only (N-terminal biotin on a linker: ado-ado).
Design: key: below the threshold = too weak to quantify, mostly under pKd 3.1 to 4

Sequence of DLG1_3, Q12959 (Q12959 457-571): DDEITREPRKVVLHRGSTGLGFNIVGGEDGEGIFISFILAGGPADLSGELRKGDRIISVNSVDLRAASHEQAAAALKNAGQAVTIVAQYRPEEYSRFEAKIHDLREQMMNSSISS

Binder	pKd
AKPSRISTVV [IQSEC2, Q5JU85]	below the threshold
DDENIRTSDV [PLEKHA2, Q9HB19]	below the threshold
PEYLGLDVPV [ERBB2, P04626]	below the threshold

These binders were tested against T2, DLG3_1, Q92796 (assay: holdup assay). Conditions: plain residues with an end cap or a label only (N-terminal biotin on a linker: ado-ado).
T2 sequence (Q92796 125-227, limits assumed, looked up): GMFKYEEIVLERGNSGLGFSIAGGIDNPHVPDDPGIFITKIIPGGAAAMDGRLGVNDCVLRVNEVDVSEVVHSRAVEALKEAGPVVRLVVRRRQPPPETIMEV
Design: key: below the threshold = too weak to quantify, mostly under pKd 3.1 to 4

Binder	pKd
AKPSRISTVV [IQSEC2, Q5JU85]	4.3
DDENIRTSDV [PLEKHA2, Q9HB19]	below the threshold
PEYLGLDVPV [ERBB2, P04626]	below the threshold

The binders below were run against T3, DLG3_2, Q92796 (assay: holdup assay). Conditions: plain residues with an end cap or a label only (N-terminal biotin on a linker: ado-ado).
T3 sequence (Q92796 221-321, limits assumed, looked up): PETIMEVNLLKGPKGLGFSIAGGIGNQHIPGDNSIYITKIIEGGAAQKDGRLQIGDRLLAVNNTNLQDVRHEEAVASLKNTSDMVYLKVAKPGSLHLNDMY
Design: key: below the threshold = too weak to quantify, mostly under pKd 3.1 to 4

Binder	pKd
AKPSRISTVV [IQSEC2, Q5JU85]	5.33
DDENIRTSDV [PLEKHA2, Q9HB19]	4.38
PEYLGLDVPV [ERBB2, P04626]	3.53

These binders were tested against DLG4_1, P78352 (assay: holdup assay). Conditions: plain residues with an end cap or a label only (N-terminal biotin on a linker: ado-ado).
Design: key: below the threshold = too weak to quantify, mostly under pKd 3.1 to 4

Sequence of DLG4_1, P78352 (P78352 62-152): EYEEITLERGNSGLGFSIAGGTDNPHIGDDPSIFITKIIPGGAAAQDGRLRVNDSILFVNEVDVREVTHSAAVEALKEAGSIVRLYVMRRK

Binder	pKd
AKPSRISTVV [IQSEC2, Q5JU85]	4.82
DDENIRTSDV [PLEKHA2, Q9HB19]	3.69
PEYLGLDVPV [ERBB2, P04626]	below the threshold

These binders were tested against GORASP2, Q9H8Y8 (assay: holdup assay). Conditions: plain residues with an end cap or a label only (N-terminal biotin on a linker: ado-ado).
Design: key: below the threshold = too weak to quantify, mostly under pKd 3.1 to 4

Binder	pKd
AKPSRISTVV [IQSEC2, Q5JU85]	4.47
DDENIRTSDV [PLEKHA2, Q9HB19]	below the threshold
PEYLGLDVPV [ERBB2, P04626]	below the threshold

These binders were tested against T4, GRIP1_2, Q9Y3R0 (assay: holdup assay). Conditions: plain residues with an end cap or a label only (N-terminal biotin on a linker: ado-ado).
T4 sequence (Q9Y3R0 145-248, limits assumed, looked up): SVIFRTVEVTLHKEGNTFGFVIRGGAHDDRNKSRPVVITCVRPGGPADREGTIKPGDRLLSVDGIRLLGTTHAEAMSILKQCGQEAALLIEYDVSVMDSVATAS
Design: key: below the threshold = too weak to quantify, mostly under pKd 3.1 to 4

Binder	pKd
AKPSRISTVV [IQSEC2, Q5JU85]	below the threshold
DDENIRTSDV [PLEKHA2, Q9HB19]	below the threshold
PEYLGLDVPV [ERBB2, P04626]	below the threshold

These binders were tested against T5, GRIP1_4, Q9Y3R0 (assay: holdup assay). Conditions: plain residues with an end cap or a label only (N-terminal biotin on a linker: ado-ado).
T5 sequence (Q9Y3R0 467-571, limits assumed, looked up): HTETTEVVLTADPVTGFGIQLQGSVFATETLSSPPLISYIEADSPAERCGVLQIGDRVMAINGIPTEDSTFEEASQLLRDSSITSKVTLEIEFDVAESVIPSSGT
Design: key: below the threshold = too weak to quantify, mostly under pKd 3.1 to 4

Binder	pKd
AKPSRISTVV [IQSEC2, Q5JU85]	below the threshold
DDENIRTSDV [PLEKHA2, Q9HB19]	below the threshold
PEYLGLDVPV [ERBB2, P04626]	below the threshold

Each binder was assayed against HTRA1, Q92743 (assay: holdup assay). Conditions: plain residues with an end cap or a label only (N-terminal biotin on a linker: ado-ado).
Design: key: below the threshold = too weak to quantify, mostly under pKd 3.1 to 4

Sequence of HTRA1, Q92743 (Q92743 360-477): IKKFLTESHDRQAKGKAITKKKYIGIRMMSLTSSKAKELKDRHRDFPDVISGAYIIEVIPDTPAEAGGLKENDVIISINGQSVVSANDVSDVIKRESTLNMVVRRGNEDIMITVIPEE

Binder	pKd
AKPSRISTVV [IQSEC2, Q5JU85]	4.5
DDENIRTSDV [PLEKHA2, Q9HB19]	below the threshold
PEYLGLDVPV [ERBB2, P04626]	3.59

These binders were tested against T6, HTRA3, P83110 (assay: holdup assay). Conditions: plain residues with an end cap or a label only (N-terminal biotin on a linker: ado-ado).
T6 sequence (P83110 354-453, limits assumed, looked up): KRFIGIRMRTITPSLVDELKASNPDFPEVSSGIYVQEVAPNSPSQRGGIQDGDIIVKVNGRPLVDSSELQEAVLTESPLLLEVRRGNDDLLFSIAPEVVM
Design: key: below the threshold = too weak to quantify, mostly under pKd 3.1 to 4

Binder	pKd
AKPSRISTVV [IQSEC2, Q5JU85]	3.65
DDENIRTSDV [PLEKHA2, Q9HB19]	below the threshold
PEYLGLDVPV [ERBB2, P04626]	below the threshold

What follows are binders tested against IL16_1, Q14005 (assay: holdup assay). Conditions: plain residues with an end cap or a label only (N-terminal biotin on a linker: ado-ado).
Design: key: below the threshold = too weak to quantify, mostly under pKd 3.1 to 4

Sequence of IL16_1, Q14005 (Q14005 210-306): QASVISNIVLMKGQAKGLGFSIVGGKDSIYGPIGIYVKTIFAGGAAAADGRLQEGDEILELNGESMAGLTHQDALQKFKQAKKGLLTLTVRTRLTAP

Binder	pKd
AKPSRISTVV [IQSEC2, Q5JU85]	below the threshold
DDENIRTSDV [PLEKHA2, Q9HB19]	3.83
PEYLGLDVPV [ERBB2, P04626]	3.65

Each binder was assayed against Inadl_10, Q8NI35 (assay: holdup assay). Conditions: plain residues with an end cap or a label only (N-terminal biotin on a linker: ado-ado).
Design: key: below the threshold = too weak to quantify, mostly under pKd 3.1 to 4

Sequence of Inadl_10, Q8NI35 (Q8NI35 1673-1763): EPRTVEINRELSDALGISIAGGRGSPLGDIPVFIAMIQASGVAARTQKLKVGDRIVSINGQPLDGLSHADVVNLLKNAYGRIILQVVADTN

Binder	pKd
AKPSRISTVV [IQSEC2, Q5JU85]	below the threshold
DDENIRTSDV [PLEKHA2, Q9HB19]	below the threshold
PEYLGLDVPV [ERBB2, P04626]	below the threshold

The binders below were run against Inadl_5, Q8NI35 (assay: holdup assay). Conditions: plain residues with an end cap or a label only (N-terminal biotin on a linker: ado-ado).
Design: key: below the threshold = too weak to quantify, mostly under pKd 3.1 to 4

Sequence of Inadl_5, Q8NI35 (Q8NI35 673-780): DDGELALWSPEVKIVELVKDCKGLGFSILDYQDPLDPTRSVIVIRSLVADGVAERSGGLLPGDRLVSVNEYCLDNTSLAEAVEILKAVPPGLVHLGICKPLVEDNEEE

Binder	pKd
AKPSRISTVV [IQSEC2, Q5JU85]	4.21
DDENIRTSDV [PLEKHA2, Q9HB19]	below the threshold
PEYLGLDVPV [ERBB2, P04626]	below the threshold

These binders were tested against Inadl_9, Q8NI35 (assay: holdup assay). Conditions: plain residues with an end cap or a label only (N-terminal biotin on a linker: ado-ado).
Design: key: below the threshold = too weak to quantify, mostly under pKd 3.1 to 4

Sequence of Inadl_9, Q8NI35 (Q8NI35 1530-1615): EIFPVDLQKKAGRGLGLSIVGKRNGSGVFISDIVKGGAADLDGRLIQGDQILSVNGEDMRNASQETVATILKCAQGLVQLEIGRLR

Binder	pKd
AKPSRISTVV [IQSEC2, Q5JU85]	below the threshold
DDENIRTSDV [PLEKHA2, Q9HB19]	below the threshold
PEYLGLDVPV [ERBB2, P04626]	below the threshold

The binders below were run against LAP2, Q96RT1 (assay: holdup assay). Conditions: plain residues with an end cap or a label only (N-terminal biotin on a linker: ado-ado).
Design: key: below the threshold = too weak to quantify, mostly under pKd 3.1 to 4

Sequence of LAP2, Q96RT1 (Q96RT1 other isoform, or with tags, fused parts or gaps): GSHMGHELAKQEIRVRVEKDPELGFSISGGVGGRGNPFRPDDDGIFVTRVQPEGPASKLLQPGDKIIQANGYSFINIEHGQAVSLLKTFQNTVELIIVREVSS

Binder	pKd
AKPSRISTVV [IQSEC2, Q5JU85]	below the threshold
DDENIRTSDV [PLEKHA2, Q9HB19]	4.18
PEYLGLDVPV [ERBB2, P04626]	4.26

The binders below were run against T7, LIN7B, Q9HAP6 (assay: holdup assay). Conditions: plain residues with an end cap or a label only (N-terminal biotin on a linker: ado-ado).
T7 sequence (Q9HAP6 88-185, limits assumed, looked up): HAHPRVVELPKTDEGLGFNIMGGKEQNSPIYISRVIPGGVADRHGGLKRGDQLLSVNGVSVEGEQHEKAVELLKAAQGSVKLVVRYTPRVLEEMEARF
Design: key: below the threshold = too weak to quantify, mostly under pKd 3.1 to 4

Binder	pKd
AKPSRISTVV [IQSEC2, Q5JU85]	3.73
DDENIRTSDV [PLEKHA2, Q9HB19]	below the threshold
PEYLGLDVPV [ERBB2, P04626]	below the threshold

Each binder was assayed against T8, MPDZ_10, O75970 (assay: holdup assay). Conditions: plain residues with an end cap or a label only (N-terminal biotin on a linker: ado-ado).
T8 sequence (O75970 1624-1722, limits assumed, looked up): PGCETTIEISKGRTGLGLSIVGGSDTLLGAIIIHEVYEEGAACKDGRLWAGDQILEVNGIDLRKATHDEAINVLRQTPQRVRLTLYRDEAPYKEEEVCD
Design: key: below the threshold = too weak to quantify, mostly under pKd 3.1 to 4

Binder	pKd
AKPSRISTVV [IQSEC2, Q5JU85]	3.57
DDENIRTSDV [PLEKHA2, Q9HB19]	3.85
PEYLGLDVPV [ERBB2, P04626]	below the threshold

What follows are binders tested against NHERF4_4, Q86UT5 (assay: holdup assay). Conditions: plain residues with an end cap or a label only (N-terminal biotin on a linker: ado-ado).
Design: key: below the threshold = too weak to quantify, mostly under pKd 3.1 to 4

Sequence of NHERF4_4, Q86UT5 (Q86UT5 464-550): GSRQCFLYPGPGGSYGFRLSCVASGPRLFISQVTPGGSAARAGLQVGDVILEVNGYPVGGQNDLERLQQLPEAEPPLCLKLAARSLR

Binder	pKd
AKPSRISTVV [IQSEC2, Q5JU85]	below the threshold
DDENIRTSDV [PLEKHA2, Q9HB19]	below the threshold
PEYLGLDVPV [ERBB2, P04626]	below the threshold

Each binder was assayed against NOS1, P29475 (assay: holdup assay). Conditions: plain residues with an end cap or a label only (N-terminal biotin on a linker: ado-ado).
Design: key: below the threshold = too weak to quantify, mostly under pKd 3.1 to 4

Sequence of NOS1, P29475 (P29475 9-101): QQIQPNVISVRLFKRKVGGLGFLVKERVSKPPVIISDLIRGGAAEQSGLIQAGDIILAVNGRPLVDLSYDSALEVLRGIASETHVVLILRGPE

Binder	pKd
AKPSRISTVV [IQSEC2, Q5JU85]	3.65
DDENIRTSDV [PLEKHA2, Q9HB19]	below the threshold
PEYLGLDVPV [ERBB2, P04626]	3.9

The binders below were run against T9, PARD3B_1, Q8TEW8 (assay: holdup assay). Conditions: plain residues with an end cap or a label only (N-terminal biotin on a linker: ado-ado).
T9 sequence (Q8TEW8 196-299, limits assumed, looked up): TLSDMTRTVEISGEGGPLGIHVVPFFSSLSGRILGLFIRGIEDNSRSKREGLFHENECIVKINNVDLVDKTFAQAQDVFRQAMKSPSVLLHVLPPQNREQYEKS
Design: key: below the threshold = too weak to quantify, mostly under pKd 3.1 to 4

Binder	pKd
AKPSRISTVV [IQSEC2, Q5JU85]	below the threshold
DDENIRTSDV [PLEKHA2, Q9HB19]	below the threshold
PEYLGLDVPV [ERBB2, P04626]	below the threshold

The binders below were run against T10, PTPN13_1, Q12923 (assay: holdup assay). Conditions: plain residues with an end cap or a label only (N-terminal biotin on a linker: ado-ado).
T10 sequence (Q12923 1088-1188, limits assumed, looked up): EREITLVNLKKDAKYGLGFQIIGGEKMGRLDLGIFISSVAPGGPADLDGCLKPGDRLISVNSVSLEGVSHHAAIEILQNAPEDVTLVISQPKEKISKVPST
Design: key: below the threshold = too weak to quantify, mostly under pKd 3.1 to 4

Binder	pKd
AKPSRISTVV [IQSEC2, Q5JU85]	below the threshold
DDENIRTSDV [PLEKHA2, Q9HB19]	below the threshold
PEYLGLDVPV [ERBB2, P04626]	below the threshold

Each binder was assayed against T11, RHPN1, Q8TCX5 (assay: holdup assay). Conditions: plain residues with an end cap or a label only (N-terminal biotin on a linker: ado-ado).
T11 sequence (Q8TCX5 508-602, limits assumed, looked up): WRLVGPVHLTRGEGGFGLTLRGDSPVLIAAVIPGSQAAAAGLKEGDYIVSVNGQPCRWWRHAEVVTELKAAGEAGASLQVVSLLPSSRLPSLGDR
Design: key: below the threshold = too weak to quantify, mostly under pKd 3.1 to 4

Binder	pKd
AKPSRISTVV [IQSEC2, Q5JU85]	below the threshold
DDENIRTSDV [PLEKHA2, Q9HB19]	3.92
PEYLGLDVPV [ERBB2, P04626]	below the threshold

The binders below were run against T12, SYNJ2BP, P57105 (assay: holdup assay). Conditions: plain residues with an end cap or a label only (N-terminal biotin on a linker: ado-ado).
T12 sequence (P57105 8-110, limits assumed, looked up): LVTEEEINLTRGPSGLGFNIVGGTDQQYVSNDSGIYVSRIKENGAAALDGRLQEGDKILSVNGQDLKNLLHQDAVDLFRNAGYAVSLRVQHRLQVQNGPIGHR
Design: key: below the threshold = too weak to quantify, mostly under pKd 3.1 to 4

Binder	pKd
AKPSRISTVV [IQSEC2, Q5JU85]	4.51
DDENIRTSDV [PLEKHA2, Q9HB19]	4.38
PEYLGLDVPV [ERBB2, P04626]	below the threshold

The binders below were run against TJP1_3, Q07157 (assay: holdup assay). Conditions: plain residues with an end cap or a label only (N-terminal biotin on a linker: ado-ado).
Design: key: below the threshold = too weak to quantify, mostly under pKd 3.1 to 4

Sequence of TJP1_3, Q07157 (Q07157 416-512): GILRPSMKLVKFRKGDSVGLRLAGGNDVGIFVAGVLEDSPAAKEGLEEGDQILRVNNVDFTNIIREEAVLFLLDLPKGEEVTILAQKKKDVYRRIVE

Binder	pKd
AKPSRISTVV [IQSEC2, Q5JU85]	below the threshold
DDENIRTSDV [PLEKHA2, Q9HB19]	below the threshold
PEYLGLDVPV [ERBB2, P04626]	below the threshold

Each binder was assayed against TJP2_1, Q9UDY2 (assay: holdup assay). Conditions: plain residues with an end cap or a label only (N-terminal biotin on a linker: ado-ado).
Design: key: below the threshold = too weak to quantify, mostly under pKd 3.1 to 4

Sequence of TJP2_1, Q9UDY2 (Q9UDY2 24-128): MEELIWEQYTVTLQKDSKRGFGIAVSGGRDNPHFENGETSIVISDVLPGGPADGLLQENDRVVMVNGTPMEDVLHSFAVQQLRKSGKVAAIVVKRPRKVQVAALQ

Binder	pKd
AKPSRISTVV [IQSEC2, Q5JU85]	4.46
DDENIRTSDV [PLEKHA2, Q9HB19]	below the threshold
PEYLGLDVPV [ERBB2, P04626]	below the threshold
